Molecular target: N-terminal histidine-tagged full-length mouse eIF4AI (mouse, UniProt P60843 1-406)
Experiment: SPR

Chain of N-terminal histidine-tagged full-length mouse eIF4AI (P60843 whole entry): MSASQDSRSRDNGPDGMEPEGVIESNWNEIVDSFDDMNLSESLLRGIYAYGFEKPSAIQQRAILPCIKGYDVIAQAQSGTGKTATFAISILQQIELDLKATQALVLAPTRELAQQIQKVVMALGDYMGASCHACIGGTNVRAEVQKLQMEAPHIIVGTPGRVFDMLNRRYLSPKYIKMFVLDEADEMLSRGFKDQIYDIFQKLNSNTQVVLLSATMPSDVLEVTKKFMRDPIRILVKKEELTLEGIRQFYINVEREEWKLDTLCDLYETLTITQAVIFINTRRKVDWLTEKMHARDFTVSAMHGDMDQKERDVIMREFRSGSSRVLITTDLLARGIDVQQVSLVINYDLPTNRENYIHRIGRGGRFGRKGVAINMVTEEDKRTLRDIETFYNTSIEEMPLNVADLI

B1: GST-MA-3M-C fusion protein (tandem MA-3 region of mouse Pdcd4, residues 157-449) (domain or fragment, UniProt Q61823 157-449, looked up)
chain: LPLDETAFEKTLTPIIQEYFEHGDTNEVAEMLRDLNLGEMKSGVPVLAVSLALEGKASHREMTSKLLSDLCGTVMSTNDVEKSFDKLLKDLPELALDTPRAPQLVGQFIARAVGDGILCNTYIDSYKGTVDCVQARAALDKATVLLSMSKGGKRKDSVWGSGGGQQPVNHLVKEIDMLLKEYLLSGDISEAEHCLKELEVPHFHHELVYEAIVMVLESTGESAFKMILDLLKSLWKSSTITIDQMKRGYERIYNEIPDINLDVPHSYSVLERFVEECFQAGIISKQLRDLCPS
For B1, the Kd was 167 nM.

— publication PMC3089569 (The Journal of Biological Chemistry, 2011)
